± gives the standard deviation of the averaged measurements.
Test: total protein half-life in vivo (active degradation + dilution); higher = more stable protein
[1] = E. coli NCM3722 delta-smpB, growth: N-lim chemostat, doubling time 6 h
[2] = wild type E. coli NCM3722, growth: C-lim chemostat, doubling time 6 h
[3] = E. coli NCM3722 delta-clpP delta-lon delta-hslV, growth: N-lim chemostat, doubling time 6 h
[4] = E. coli NCM3722 delta-hslV, growth: N-lim chemostat, doubling time 6 h
[5] = E. coli NCM3722 delta-lon, growth: N-lim chemostat, doubling time 6 h
[6] = wild type E. coli NCM3722, growth: C-lim chemostat, doubling time 3 h
[7] = wild type E. coli NCM3722, growth: C-lim chemostat, doubling time 12 h
[8] = wild type E. coli NCM3722, growth: N-lim chemostat, doubling time 6 h
[9] = wild type E. coli NCM3722, growth: N-lim chemostat, doubling time 12 h
[10] = wild type E. coli NCM3722, growth: P-lim chemostat, doubling time 6 h
[11] = wild type E. coli NCM3722, growth: P-lim chemostat, doubling time 12 h
[12] = E. coli NCM3722 delta-clpP, growth: N-lim chemostat, doubling time 6 h

Sequence | total protein half-life in vivo [1] | total protein half-life in vivo [2] | total protein half-life in vivo [3] | total protein half-life in vivo [4] | total protein half-life in vivo [5] | total protein half-life in vivo [6] | total protein half-life in vivo [7] | total protein half-life in vivo [8] | total protein half-life in vivo [9] | total protein half-life in vivo [10] | total protein half-life in vivo [11] | total protein half-life in vivo [12]
MFDYILSLGGTVFVPIIMIVIGLIFRIPWLQAIKAGVTVGIGFVGMGLVIVMAIDSLSPPIKVMIERFGLALHVFDVGAGPASGVGYATAIGAMIIPVIFLLNVAMLVTRLTKTMNVDIYNYWHYAITGTVVQLMTGSLIYGVLGAICHAALSLKMADWTAKRVQNIVGLEGISIPQGYGSSSVPLFVLLDAIYEKIPFMKGRNIDAQEIQKRYGMVGDPVIIGVVLGLIFGLAAGEGFKGCASLMITVAAIMVLFPRMIRLIVEGLLPISDGARKFFQKYFKGREVYIGLDTAVTLGHPTTIAVGLLLIPIMLILASILPGNKVLPLADLPVAPFFICMATVIHRGDLVRTLISGVIVMITVLLIATQFAPYFTEMALKGGFSFAGESAQISALSVGNMFGWSISELMSLGIIGVVVAVGIVASVVLFLRKRELSE | 7.4 h | 6 ± 0.68 h | – | – | – | – | – | – | – | – | – | –
MFEIHPVKKVSVVIPVYNEQESLPELIRRTTTACESLGKEYEILLIDDGSSDNSAHMLVEASQAENSHIVSILLNRNYGQHSAIMAGFSHVTGDLIITLDADLQNPPEEIPRLVAKADEGYDVVGTVRQNRQDSWFRKTASKMINRLIQRTTGKAMGDYGCMLRAYRRHIVDAMLHCHERSTFIPILANIFARRAIEIPVHHAEREFGESKYSFMRLINLMYDLVTCLTTTPLRMLSLLGSIIAIGGFSIAVLLVILRLTFGPQWAAEGVFMLFAVLFTFIGAQFIGMGLLGEYIGRIYTDVRARPRYFVQQVIRPSSKENE | 6.14 ± 0.12 h | 6.77 ± 1.7 h | 5.758 ± 0.026 h | 6.356 ± 0.027 h | 6.156 ± 0.045 h | 2.84 ± 0.4 h | 11.6 ± 0.56 h | 6.21 ± 0.57 h | 12.6 ± 0.58 h | 6.08 ± 0.52 h | 12.1 ± 0.46 h | –
MFENITAAPADPILGLADLFRADERPGKINLGIGVYKDETGKTPVLTSVKKAEQYLLENETTKNYLGIDGIPEFGRCTQELLFGKGSALINDKRARTAQTPGGTGALRVAADFLAKNTSVKRVWVSNPSWPNHKSVFNSAGLEVREYAYYDAENHTLDFDALINSLNEAQAGDVVLFHGCCHNPTGIDPTLEQWQTLAQLSVEKGWLPLFDFAYQGFARGLEEDAEGLRAFAAMHKELIVASSYSKNFGLYNERVGACTLVAADSETVDRAFSQMKAAIRANYSNPPAHGASVVATILSNDALRAIWEQELTDMRQRIQRMRQLFVNTLQEKGANRDFSFIIKQNGMFSFSGLTKEQVLRLREEFGVYAVASGRVNVAGMTPDNMAPLCEAIVAVL | 3.789 ± 0.034 h | 5.555 ± 0.041 h | 4.59 ± 0.58 h | 3.88 ± 0.059 h | 4.44 ± 0.22 h | 3.16 ± 0.23 h | 10.29 ± 0.024 h | 3.86 ± 0.14 h | 5.97 ± 0.14 h | 5.69 ± 0.19 h | 11.84 ± 0.03 h | 4.02 ± 0.34 h
MFEPMELTNDAVIKVIGVGGGGGNAVEHMVRERIEGVEFFAVNTDAQALRKTAVGQTIQIGSGITKGLGAGANPEVGRNAADEDRDALRAALEGADMVFIAAGMGGGTGTGAAPVVAEVAKDLGILTVAVVTKPFNFEGKKRMAFAEQGITELSKHVDSLITIPNDKLLKVLGRGISLLDAFGAANDVLKGAVQGIAELITRPGLMNVDFADVRTVMSEMGYAMMGSGVASGEDRAEEAAEMAISSPLLEDIDLSGARGVLVNITAGFDLRLDEFETVGNTIRAFASDNATVVIGTSLDPDMNDELRVTVVATGIGMDKRPEITLVTNKQVQQPVMDRYQQHGMAPLTQEQKPVAKVVNDNAPQTAKEPDYLDIPAFLRKQAD [P0A9A6] | 1.95 ± 0.0047 h | 1.97 ± 0.13 h | 5.406 ± 0.043 h | 1.86 ± 0.3 h | 1.95 ± 0.19 h | 1.25 ± 0.079 h | 2.7 ± 0.23 h | 1.79 ± 0.093 h | 2.79 ± 0.26 h | 2.53 ± 0.23 h | 4.37 ± 0.54 h | 5.13 ± 0.67 h
MFGKGGLGNLMKQAQQMQEKMQKMQEEIAQLEVTGESGAGLVKVTINGAHNCRRVEIDPSLLEDDKEMLEDLVAAAFNDAARRIEETQKEKMASVSSGMQLPPGFKMPF [P0A8B5] | 3.28 ± 0.64 h | 4.44 ± 0.19 h | 6.29 ± 0.61 h | 3.59 ± 0.49 h | 4.57 ± 0.16 h | 2.68 ± 0.07 h | 7.56 ± 0.1 h | 3.02 ± 0.071 h | 5.05 ± 0.83 h | 4.24 ± 0.68 h | 9.46 ± 0.42 h | 4.38 ± 0.044 h
MFGYRSNVPKVRLTTDRLVVRLVHDRDAWRLADYYAENRHFLKPWEPVRDESHCYPSGWQARLGMINEFHKQGSAFYFGLFDPDEKEIIGVANFSNVVRGSFHACYLGYSIGQKWQGKGLMFEALTAAIRYMQRTQHIHRIMANYMPHNKRSGDLLARLGFEKEGYAKDYLLIDGQWRDHVLTALTTPDWTPGR [P0A948] | 4.098 ± 0.021 h | 5.02 ± 0.078 h | 4.56 ± 0.93 h | 3.89 ± 0.49 h | 4.189 ± 0.017 h | 3.07 ± 0.059 h | 8.98 ± 0.43 h | 3.57 ± 0.065 h | 5.92 ± 0.15 h | 5.38 ± 0.41 h | – | 3.52 ± 0.15 h
MFIPSIYLHQQLHYCKTAILNWSRKMALSRQKFTFERLRRFTLPEGKKQTFLWDADVTTLACRATSGAKAFVFQSVYAGKTLRMTIGNINDWKIDDARAEARRLQTLIDTGIDPRIAKAVKIAEAESLQAESRKTKVTFSVAWEDYLQELRTGISAKTKRPYSTRYIADHINLSSRGGESKKRGQGPTSAGPLASLLNLPLSELTPDYIAAWLSTERQNRPTVTAHAYRLLRAFIKWSNYQKKYQGIIPGDLAQDYNVRKMVPVSASKADDCLQKEQLKSWFSAVRSLNNPIASAYLQVLLLTGARREEIASLRWSDVDFKWSSMRIKDKIEGERIIPLTPYVSELLNVLAQSPNSDVNKEGWVFRSNSKSGKIIEPRSAHNRALVLAELPHISLHGLRRSFGTLAEWVEVPTGIVAQIMGHKPSALAEKHYRRRPLDLLRKWHEKIETWILNEAGITIKNNVDMR | 0.692 ± 0.011 h | 1.51 ± 0.091 h | 4.69 ± 0.43 h | 1.22 ± 0.19 h | 3.07 ± 0.74 h | 0.877 ± 0.072 h | 3.01 ± 0.11 h | 1.19 ± 0.41 h | 1.97 ± 0.42 h | 0.516 h | 2.03 ± 0.4 h | 1.01 ± 0.058 h

Source: the supplement of paper PMC11246515
